Series [1] is described as follows: Pharmacokinetic study: variability in plasma concentration (% CV) after p.o. administration of SNAC tablet to humans. Type of series: in vivo. To be noted: for % CV AUC / % CV Cmax: p.o. tablet with 300 mg SNAC. Here is the method:
The variability in plasma concentration was determined as % CV for both Cmax and AUC.

For series [2] the following is noted: dog, in vivo. Here is the method:
The other monoclonal antibody, specific for an N-terminal epitope, was biotinylated. […] Illumination of the complex releases singlet oxygen atoms from the donor beads which channels into the acceptor beads and trigger chemiluminescence which was measured in the EnVision plate reader.
The LC-MS system consisted of Waters Acquity UPLC system (Waters) consisting of an autosampler (Model Acq-SM), pump (Model Acq-BSM), column oven (Model Acq-SM), detector (Model Acq-TUV) and LTQ Orbitrap XL (Thermo Fisher). RP-HPLC separation was achieved using a linear gradient of acetonitrile in 0.1% formic acid using CSH C18 column (Waters, 1×150 mm) with a flow rate of 0.1 ml/min at 45° C.
A pharmacokinetic study was carried out to determine plasma half-life of the GLP-1 peptides after p.o. administration to Beagle dogs.
Dogs were administered p.o. GLP-1 peptide 1 in a SNAC formulation. Blood samples were drawn at predefined time points after dosing, and samples were analysed for concentration of the GLP-1 peptide. […] The variability in plasma concentration of the GLP-1 peptide was determined as % CV for AUC. […]
Blood samples were drawn at predefined time points after dosing, and samples were analysed for concentration of the GLP-1 peptide. […] The variability in plasma concentration of the GLP-1 peptide was determined as % CV for AUC. […]

Where [3] appears, read: 10 mg, single dose, healthy subjects.
Setting [4] is: 10 mg/day for 70 days, healthy subjects, Day 70.
Where [5] appears, read: 20 mg/day for 70 days, healthy subjects, Day 69.
The mark [6] stands for this setting: 40 mg/day for 70 days, healthy subjects, Day 69.
Setting [7] is: 40 mg/day for 70 days, subjects with type 2 diabetes, Day 69.

Like-named read-outs stand apart in the source and are kept apart here.

As to “N-epsilon26-[2-(2-{2-[2-(2-{2-[(S)-4-Carboxy-4-(17-carboxyheptadecanoyl-amino)butyrylamino]ethoxy}ethoxy)acetylamino]ethoxy}ethoxy)acetyl][Aib8,Arg34]GLP-1-(7-37) [GLP-1 peptide 1]”, the “variability in plasma exposure, daily dosing compared to single dose” value in series [1] (humans, 10, 20 or 40 mg daily for 70 days vs single dose of 10 mg) was “significantly reduced”; in series [2], “significantly reduced”. In addition, the “% CV AUC” value is 105% in series [1] (setting [3]); 73% (Day 70) in series [1] (setting [4]); 67% (Day 69) in series [1] (setting [5]); 78% (Day 69) in series [1] (setting [6]); 55% (Day 69) in series [1] (setting [7]); 67% in series [2] (po, 300 mg). Further, the “% CV Cmax” value is given as 113% in series [1] (setting [3]); 74% (Day 70) in series [1] (setting [4]); 62% (Day 69) in series [1] (setting [5]); 80% (Day 69) in series [1] (setting [6]); 54% (Day 69) in series [1] (setting [7]).

The values are drawn from patent publication US10278923B2, “Oral dosing of GLP-1 compounds” (Novo Nordisk A/S, priority 2013, dated 2019).
